From publication PMC5549993, “Bacterial effector NleL promotes enterohemorrhagic E. coli-induced attaching and effacing lesions by ubiquitylating and inactivating JNK” (PLoS Pathogens, 2017)
Numbering of substitutions follows the chain as printed.

Columns and labels:
[1] = target: T1, GST-tagged NleL C753A mutant (E. coli O157:H7 Sakai strain, UniProt A0A0H3JDV8 1-782, C753A); assay: pull-down; conditions: both partners purified
T1 construct: also called GST-NleL-CA; NleL-CA
T1 sequence: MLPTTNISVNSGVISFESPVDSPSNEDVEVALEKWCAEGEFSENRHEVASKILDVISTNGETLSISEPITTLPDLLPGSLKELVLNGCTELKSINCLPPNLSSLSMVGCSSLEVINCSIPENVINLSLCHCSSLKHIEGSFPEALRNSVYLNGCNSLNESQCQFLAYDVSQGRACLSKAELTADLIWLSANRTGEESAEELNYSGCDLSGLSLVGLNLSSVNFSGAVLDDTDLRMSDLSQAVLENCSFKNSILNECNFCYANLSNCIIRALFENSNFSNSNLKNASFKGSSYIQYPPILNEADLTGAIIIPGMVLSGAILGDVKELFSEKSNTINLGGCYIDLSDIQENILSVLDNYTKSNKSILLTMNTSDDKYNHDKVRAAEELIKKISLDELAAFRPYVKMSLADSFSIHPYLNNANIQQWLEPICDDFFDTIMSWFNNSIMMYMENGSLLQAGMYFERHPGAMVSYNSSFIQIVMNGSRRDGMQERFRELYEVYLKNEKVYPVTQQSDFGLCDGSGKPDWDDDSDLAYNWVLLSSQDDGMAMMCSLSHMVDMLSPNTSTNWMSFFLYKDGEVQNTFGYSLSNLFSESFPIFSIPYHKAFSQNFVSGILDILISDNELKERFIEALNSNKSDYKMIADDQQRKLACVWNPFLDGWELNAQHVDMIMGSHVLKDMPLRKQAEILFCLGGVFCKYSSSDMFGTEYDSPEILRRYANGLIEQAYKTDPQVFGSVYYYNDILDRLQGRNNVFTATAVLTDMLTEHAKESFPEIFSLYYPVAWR

[2] = target: T2, GST-tagged wild-type NleL (full length) (E. coli O157:H7 Sakai strain, UniProt A0A0H3JDV8 1-782); assay: pull-down; conditions: both partners purified
T2 construct: also called GST-NleL; EspX7; source: E. coli BL21 (DE3), purified (Glutathione Sepharose)
T2 sequence: T1 sequence with A753C

B1: His6-tagged JNK1 purified from bacteria (enzyme, human, UniProt P45983-2 1-384, looked up)
chain: MSRSKRDNNFYSVEIGDSTFTVLKRYQNLKPIGSGAQGIVCAAYDAILERNVAIKKLSRPFQNQTHAKRAYRELVLMKCVNHKNIIGLLNVFTPQKSLEEFQDVYIVMELMDANLCQVIQMELDHERMSYLLYQMLCGIKHLHSAGIIHRDLKPSNIVVKSDCTLKILDFGLARTAGTSFMMTPYVVTRYYRAPEVILGMGYKENVDLWSVGCIMGEMVCHKILFPGRDYIDQWNKVIEQLGTPCPEFMKKLQPTVRTYVENRPKYAGYSFEKLFPDVLFPADSEHNKLKASQARDLLSKMLVIDASKRISVDEALQHPYINVWYDPSEAEAPPPKIPDKQLDEREHTIEEWKELIYKEVMDLEERTKNGVIRGQPSPLAQVQQ
notes: human JNK1α1 (MAPK8), in pET28a with 6x His tag; also called His-JNK1; source: E. coli BL21 (DE3), purified (Ni-NTA)
binding result [1]: binds | binding result [2]: binds
